Reference: patent publication US8592178B2, “Process for the preparation of testosterone” (F.I.S. Fabbrica Italiana Sintetici S.p.A., priority 2009, dated 2013)
Converted amounts (≈) assume the structure as drawn. “And” between values parts separate entries of the source, which are not always exact repeats. Equal entries are not always repeated.

B1: 09/10/09: Preparation of the purified recombinant enzyme dated 09/10/09; induction 26 °C, 19 h (protein, UniProt P70694 1-323, looked up)
Estradiol 17 …: MDSKQQTVRLSDGHFIPILGFGTYAPQEVPKSKATEATKIAIDAGFRHIDSASMYQNEKEVGLAIRSKIADGTVKREDIFYTSKVWCTFHRPELVRVCLEQSLKQLQLDYVDLYLIHFPMAMKPGENYLPKDENGKLIYDAVDICDTWEAMEKCKDAGLAKSIGVSNFNRRQLEKILKKPGLKYKPVCNQVECHPYLNQGKLLDFCRSKDIVLVAYSALGSHREKQWVDQSSPVLLDNPVLGSMAKKYNRTPALIALRYQLQRGVVVLAKSFSEKRIKENMQVFEFQLTSEDMKVLDDLNKNIRYISGSSFKDHPDFPFWDEY
modifications: N-terminal His-tag
notes: Preparation of the purified recombinant enzyme dated 09/10/09; induction 26 °C, 19 h
B2: 26/09/08: Preparation of the purified recombinant enzyme dated 26/09/08; induction 37 °C, 18 h (protein, UniProt P70694 1-323, looked up)
Estradiol 17 …: B1 Estradiol 17 …
modifications: N-terminal His-tag
notes: Preparation of the purified recombinant enzyme dated 26/09/08; induction 37 °C, 18 h
B3: 25/03/09: Preparation of the purified recombinant enzyme dated 25/03/09; induction 37 °C, 15 h (protein, UniProt P70694 1-323, looked up)
Estradiol 17 …: B1 Estradiol 17 …
modifications: N-terminal His-tag
notes: Preparation of the purified recombinant enzyme dated 25/03/09; induction 37 °C, 15 h
B4: 22/04/09: Preparation of the purified recombinant enzyme dated 22/04/09; induction 37 °C, 21 h (protein, UniProt P70694 1-323, looked up)
Estradiol 17 …: B1 Estradiol 17 …
modifications: N-terminal His-tag
notes: Preparation of the purified recombinant enzyme dated 22/04/09; induction 37 °C, 21 h
B5: 02/07/09: Preparation of the purified recombinant enzyme dated 02/07/09; induction 28 °C, 24 h (protein, UniProt P70694 1-323, looked up)
Estradiol 17 …: B1 Estradiol 17 …
modifications: N-terminal His-tag
notes: Preparation of the purified recombinant enzyme dated 02/07/09; induction 28 °C, 24 h
B6: 13/06/09: Preparation of the purified recombinant enzyme dated 13/06/09; induction 39 °C, 20 h (protein, UniProt P70694 1-323, looked up)
Estradiol 17 …: B1 Estradiol 17 …
modifications: N-terminal His-tag
notes: Preparation of the purified recombinant enzyme dated 13/06/09; induction 39 °C, 20 h
B7: recombinant murine type V 17β-hydroxysteroid dehydrogenase enzyme: Purified recombinant murine type V 17β-hydroxysteroid dehydrogenase with N-terminal His-tag tail, SEQ ID n. 2, expressed in E. coli (protein)
chain: MGSSHHHHHHSSGLVPRGSHMDSKQQTVRLSDGHFIPILGFGTYAPQEVPKSKATEATKIAIDAGFRHIDSASMYQNEKEVGLAIRSKIADGTVKREDIFYTSKVWCTFHRPELVRVCLEQSLKQLQLDYVDLYLIHFPMAMKPGENYLPKDENGKLIYDAVDICDTWEAMEKCKDAGLAKSIGVSNFNRRQLEKILKKPGLKYKPVCNQVECHPYLNQGKLLDFCRSKDIVLVAYSALGSHREKQWVDQSSPVLLDNPVLGSMAKKYNRTPALIALRYQLQRGVVVLAKSFSEKRIKENMQVFEFQLTSEDMKVLDDLNKNIRYISGSSFKDHPDFPFWDEY
modifications: N-terminal His-tag; modified 17-beta-deidrogenase
notes: 2, expressed in E. coli

Experiments:
[1] = Solubility of 4-androstene-3,17-dione (saturated solution); type: physicochemical
Method: • 5 mg of 4-androstene-3,17-dione in • 5 mL of buffer solution (phosphate buffer 50 mM; pH 6.5). This was stirred at 40° C. for 15 minutes and the suspended matter was filtered thereby obtaining a saturated solution of 4-androstene-3,17-dione (conc. 50 μg/mL). Solution I (NAD Solution) • 10 mg of NAD in • 1 mL of buffer solution. A clear solution was obtained. Solution L ([…]) • 13 mg of GDH-103 (glucose dehydrogenase) in • 1 mL of buffer solution. A clear solution was obtained.
Advantageously, the enzyme of the present invention is capable of carrying out the catalysis also in water-organic solvent mixtures, such as methanol, ethanol, isopropanol in percentages as high as 50%. This mixtures allow increasing the substrate solubility, which is as low as about 50 μg/mL in water.

[2] = Activity test of the recombinant murine type V 17β-hydroxysteroid dehydrogenase enzyme (NADPH consumption at 340 nm); type: biochemical; conditions: for U/mg: each enzyme preparation; for U/mg / U/ml: preparation parameters (induction temp., time) differ per date of preparation; for U/ml: eluate of each enzyme preparation
Method: To estimate the specific enzymatic activity of the purified protein, a kinetic study was carried out by means of a spectrophotometer. The conversion of 4-androstene-3,17-dione into testosterone by means of the recombinant murine type V 17β-hydroxysteroid dehydrogenase enzyme involved the equimolar consumption of the NADPH cofactor, which acted as the reducing agent.
As the transformation of the 4-androstene-3,17-dione into testosterone is equimolar to the oxidation of NADPH, by quantifying the consumption of the latter over time as a function of the enzyme milligrams used, the activity units can be estimated, which are intended as substrate micromoles converted per minute per protein milligram (U/mg).
A fresh saturated NADPH solution in phosphate buffer 100 mM at about pH 7 (SOLUTION Q) and a fresh saturated solution of 4-androstene-3,17-dione in phosphate buffer 100 mM at pH 7 (SOLUTION P) were prepared. In a quartz 100 μl cuvette, 1 cm optical path, 96 μl SOLUTION P, 4 μl phosphate buffer 100 mM at pH 7 were added. The blank was measured at 340 nm. The absorbance values at 340 nm were detected every second. In a quartz 100 μl cuvette 96 μl SOLUTION P, 2 μl SOLUTION Q and finally, 2 μl protein elution quantified by Bradford assay were inserted. The solution was blended thoroughly, then the wavelength reading was started at 340 nm and the values thereof were recorded. In a plot, the absorbance values were inserted, which were obtained as a function of time and the curve was interpolated. The highest derivate value within the early seconds of measurement was thus defined.
With the values obtained, the plot illustrated in FIG. 5 was drawn, which allows to quantify the NADPH consumption rate at time zero (except the self-oxidation given by the control, consisting of the mixture without enzyme, which must be subtracted) and from the latter the enzyme activity units per protein milligram (U/mg). To calculate the units, the following Formula was used: Unit/mg=|derivate (s^−1)|*60 (sec/min)*1 (cm)/6220 (M^−1Cm^−1)*1000000 (M/M)*[…]/[(mg/mL sol enzyme*0.002 (mL))]=(μmol/min)/mg
A study to optimize the process for the preparation of the purified recombinant murine enzyme Type V 17β-hydroxysteroid dehydrogenase was carried out. […] It can be seen that the highest activity of the enzyme is reached performing the incubation (protein expression) at a temperature lower than 30° C., particularly preferred is the range between 20° C. and 30° C. The incubation temperature is a key parameter for the preparation of the enzyme.

[3] = Stability study of the enzyme (activity as a function of time at room temperature); type: physicochemical; conditions: in the elution solution (SOLUTION G) at room temperature
Method: A study to verify the stability in water of the purified recombinant murine enzyme Type V 17β-hydroxysteroid dehydrogenase of the invention was carried out. […] It can be seen that the enzyme is sufficiently stable to allow industrial biocatalysis as it is still active even after 15 days (Half-life).

Row | Molecule | U/mg [2] [U/mg] | U/ml [2] [U/ml] | other results
1 | C[C@]12CCC(=O)C=C1CC[C@@H]1[C@@H]2CC[C@]2(C)C(=O)CC[C@@H]12 [4-androstene-3,17-dione] |  |  | solubility ([1]; in water): ~50 µg/mL (≈ 175 µM); concentration of saturated solution ([1]; phosphate buffer 50 mM pH 6.5, stirred at 40° C. for 15 minutes, filtered): 50 µg/mL
2 | B1 | 0.0133 | 0.65 | 
3 | B2 | 0.00725 | 0.2247 | 
4 | B3 | 0.0149 | 0.4955 | 
5 | B4 | 0.0057 | 0.1470 | 
6 | B5 | 0.027 | 0.29 | 
7 | B6 | 0.00393 | 0.0566 | 
8 | B7 |  |  | specific enzymatic activity (substrate micromoles converted per minute per protein milligram) ([2]; two different preparations, NADPH cofactor, phosphate buffer 100 mM pH 7): 0.006 U/mg and 0.007 U/mg; half-life [3]: more than 15 days
